The values below come from the DeepSol protein solubility set.

The data set can be described thus: soluble on expression in E. coli; label from the status in PepcDB or PDB records.
On to “MSLETQWTRMTADEAAEIIQHNDMVAFSGFTPAGSPKALPTAIARRANEQHEAKKPYQIRLLTGASISAAADDVLSDADAVSWRAPYQTSSGLRKKINQGAVSFVDLHLSEVAQMVNYGFFGDIDVAVIEASALAPDGRVWLTSGIGNAPTWLLRAKKVIIELNHYHDPRVAELADIVIPGAPPRRNSVSIFHAMDRVGTRYVQIDPKKIVAVVETNLPDAGNMLDKQNPMCQQIADNVVTFLLQEMAHGRIPPEFLPLQSGVGNINNAVMARLGENPEIPPFMMYSEVLQESVVHLLETGKISGASASSLTISADSLRKIYDNMDYFASRIVLRPQEISNNPEIIRRLGVIALNVGLEFDIYGHANSTHVAGVDLMNGIGGSGDFERNAYLSIFMAPSIAKEGKISTVVPMCSHVDHNEHSVKVIITEQGIADLRGLSPLQRARTIIDNCAHPMYRDYLHRYLENAPGGHIHHDLSHVFDLHRNLIATGSMLGEGHHHHHH”, for which the “soluble on expression in E. coli” value is reported as “soluble”.
In the case of “YKKGIKPDLESITLCREDYESSGGKEIFLSFEDTKNDLLIGYLRLRIPNNPFRKEITDKSALIRQVHVCGQQKELEGNSKELSWQHKGYGRLLIDEAEKIAKEEFEKDQMLINSGIGVREYYKKLRYKRVGPYMGKNLK”, the “soluble on expression in E. coli” value was “not soluble”.
Take “MGSDKIHHHHHHMTTTSTPGLFERPITLPDADAQSRLAKLVGMDDKIRRLSNVLAVLINPAGLKEWLDQHHAHSTGLLDAVLRRPPLVVLSGDVGSGKTELAETIGDMVARQEGIDITLLPLSLSSRGQGRVGEMTQLVSAAFDHAFHEASKVKSSRGSRSRGGVILLVDEADALAQSREADQMHHEDRAGVNAFIRGIDRLANGHLPAAVLMCTNRLNALDPAVRRRAADILVFERPDEAQRLEVLHRRLGDAGFGKADLQSLVAATGEQAKRPYGFTYSDLTQRLLPAIVLDAYPQGPIKPSRAIELARAMAPTPPFKDSTARGC”: the “soluble on expression in E. coli” value is listed as “not soluble”.
The result for “MSLENIMTLPKIKQVRAWFTGGATAEKGAGGGDYHDQGANHWIDDHIATPMSKYRDYEQLRQSFGINVLGTLVVEVEAENGQTGFAVSTAGEMGCFIVEKHLNRFIEGKCVSDIKLIHDQMLNATLYYSGSGGLVMNTISCVDLALWDLFGKVVGLPVYKLLGGAVRDEIQFYATGARPDLAKEMGFIGGKMPTHWGPHDGDAGIRKDAAMVADMREKCGEDFWLMLDCWMSQDVNYATKLAHACAPYNLKWIEECLPPQQYEGYRELKRNAPVGMMVTSGEHHGTLQSFRTLSETGIDIMQPDVGWCGGLTTLVEIAAIAKSRGQLVVPHGSSVYSHHAVITFTNTPFSEFLMTSPDCSTMRPQFDPILLNEPVPVNGRIHKSVLDKPGFGVELNRDCNLKRPYSHEGHHHHHH” reads “soluble”; that for “MKNTEIRKNIFPVGFYDDIHPDFSVNFQMNRCYTMTNDDVMLKEMREISPSIHNYEEFIEKFLELYNKALNEGHKLRAAYYLRTAEFYMTADHPQKQNYRKQFISLMQEYFNISDEQPYKVPYENGFLPAYRFTSEAPKGTIVMFGGFDSYVEEMFKMALFLKEAGYDVVFFDGPGQGSALEDYKIPMTHEWEKPVKSILDYFELDDVTLLGISLGGYLTVRAAAFEKRVHRVIADDILSNFYEVVLNTLPSQLKEKVNSLMSDGNEQEVNILFKDLMKKSLMVEWAINQGMHITGSKTPYEFLNKILLYNTSKISEKLEQDVLLMAAQEDHYIPLNQFFDQSKSLINVRSLTTRMFTRKETAQNHCQSGNLGLAFEVIANWIEQIQK”, “soluble”.
Turning to “YHPVFSAKIEQRLIERFGVKRALVALDQPNEEAQRLQVSGLVSNYLTSTLKNGMVVTVGQGRNVSSVAHHIGVITPRDCKFVCGIGGIHPRGGMYNADHICRQLAKKYGGTSETLYAPAYAENREQKMAFMQNATVKQTLDLARKADVALVGIGDMSENSYMVDLGWFTPDEVVQSRLKQGVVGDFAGYDFFDIHGNVANTVMSDRVIGLGIEEFRPIAEVIAIAAENSKPLALLGALRTGAIDVIATSVSNALTVLNLDEQMHGNAASES”, the “soluble on expression in E. coli” value is reported as “not soluble”.
Regarding “MAVIEAEGLWKIFGGDPERARTLAKEGMSKAEVKEETGSVIAVDDANFEVQEQEIFVVMGLSGSGKSTLLRCVNRLIEPTFGKVHVHDDEVTAFDEDRLRKLRRTKMSMVFQNFGLFPHRTVIGNVEYGLEVAGMDKEKRRGKARQSLELVGLDGYEDSQTSQLSGGMQQRVGLARALVNDPEILLMDEAFSALDPLIRADMQNELLELQEQWDPACTILFITHDLDEALKMGDRIAIMKDGRIAQIGTPTEILTEPADEYVRSFVENVDRTKIVPARTVMRALGDDETVAADGPSVSPHTPIAELLPALVDADGPLAVRDSGGTLQGVVSQDAVMEEVVQNADGARRRDARAGRTDEDPEAAVALEHHHHHH”, the “soluble on expression in E. coli” value is on record as “soluble”.
With “MGSDKIHHHHHHMKKKNTTPTPHDATFRQFLTQPDIARDFMELHLPAELRAICDLSTLKLESGSFVEDDLRQYFSDVLYSLKTTAGDGYIHVLVEHQSTPDKHMAFRLIRYAVAAMQRHLEAGHKKLPLVIPVLFYTGKRSPYPYSTRWLDEFDDTALADKLYSSAFPLVDVTVIPDDEIAGHRSMAALTLLQKHIHQRDLAELVDRLAPILLAGYLSSSQVISLVHYIVQAGETSDAEAFVRELAQRVPQHGDALMTIAQQLEQKGIEKGIQLGEQRGIEKGRSEGEREATLKIARTMLQNCIDRNTVMKMTGLTEDDLAQIRH”, the “soluble on expression in E. coli” value is “not soluble”.
The result for “MGSDKIHHHHHHMPTLPAYPLFREHSLLYLAHMGISKLKPSNSATTLLQLAREVLAIEAREVQALAGRLDQSFVNAVELILQCRGRVVVTGIGKSGHIGNKIAATLASTGTPAFFMHPAEASHGDLGMITRDDVVIALSNSGEADELLALLPPLKRIGTPIISISGNRHSTLSKAADIFLDAHVSQEACPLGLAPTASTTAALALGDALAVTLLDQRGFSREDFALAHPGGSIGRRLLLHVQDVMRSGDDIPAVSVSSSLKDGLLEMSRKGLGMTAVLDAADKPVGIFTDGDLRRAFEAGIDINGTRMADVMHAHPRSILPGQLAVDALALMEQYSISSLLVVDQQGNLVGALNMHDLLMAKVV” reads “not soluble”; that for “MIQRFIELGEGYSDIYELIALAKANRHRLSGFFVFHTVKKGQAVVSLAIVLHPTDPGDFQPLYICREGIPDPSVKPNKRYELFMETAKELGMDVIHLDVKPSTMFAELDLYYQHLIGIMRMNRFIPPLQ”, “not soluble”.
Take “MSLQENISVTDSYSTGNAAQAMLEKLLQIYDVKMLVAQLNGVGENHWSAAILKRALANDSAWHRLSEKEFAHLQTLLPKPPEHHPHYAFRFIDLFAGIGGIRRGFESIGGQCVFTSEWNKHAVRTYKANHYCDPATHHFNEDIRDITLSHQEGVSDEAAAEHIRQHIPEHDVLLAGFPCQPFSLAGVSKKNSLGRAHGFACDTQGTLFFDVVRIIDARRPAMFVLENVKNLKSHDKGKTFRIIMQTLDELGYDVADAEDNGPDDPKIIDGKHFLPQHRERIVLVGFRRDLNLKADFTLRDISECFPAQRVTLAQLLDPMVEAKYILTPVLWKYLYRYAKKHQARGNGFGYGMVYPNNPQSVTRTLSARYYKDGAEILIDRGWDMATGEKDFDDPLNQQHRPRRLTPRECARLMGFEAPGEAKFRIPVSDTQAYRQFGNSVVVPVFAAVAKLLEPKIKQAVALRQQEAQHGRRSREGHHHHHH”: the “soluble on expression in E. coli” value is “soluble”.
As for “KKGYEVLRDPHLNKGMAFTLEERQQLNIHGLLPPCFLGQDAQVYSILKNFERLTSDLDRYILLMSLQDRNEKLFYKVLTSDIERFMPIVYTPTVGLACQHYGLAFRRPRGLFITIHDRGHIATMLQSWPESVIKAIVVTDGERILGLGDLGCYGMGIPVGKLALYTACGGVKPHQCLPVMLDVGTDNETLLKDPLYIGLRHKRIRGQAYDDLLDEFMEAVTSRYGMNCLIQFEDFANANAFRLLHKYRNKYCTFNDDIQGTASVAVAGLLAALRITKNRLSDHTVLFQGAGEAALGIANLIVMAMQKEGVSKEEAIKRIWMVDSKGLIVKGRASLTPEKEHFAHEHCEMKNLEDIVKDIKPTVLIGVAAIGGAFTQQILQDMAAFNKRPIIFALSNPTSKAECTAEQLYKYTEGRGIFASGSPFDPVTLPSGQTLYPGQGNNSYVFPGVALGVISCGLKHIGDDVFLTTAEVIAQEVSEENLQEGRLYPPLVTIQQVSLKIAVRIAKEAYRNNTASTYPQPEDLEAFIRSQVYSTDYNCFVADSYTWPEEAMKVK”, the “soluble on expression in E. coli” value is reported as “soluble”.
Take “MSTNPGPAEGANQVMAQEHSAGAVQFTAHNVRLDDGTLTIPESSRTLDESSWFISARGILETVFPGDKSHLRLADVGCLEGGYAVGFARMGFQVLGIEVRELNMAACNYIKSKTNLPNLRFVHDNALNIANHGLFDTVFCCGLFYHLENPKQYLETLSSVTNKLLILQTHFSIINRSDKWLRLPTTARQLTDRLLRRPAPVKFMLSAPTEHEGLPGRWFTEFSDDRSFGQRDTAKWASWDNRRSFWIQREHLLQAIKDVGVDLVMEEYDNLEPSIAESLLGGSYAANLRGTFIGIKTR”: the “soluble on expression in E. coli” value is “soluble”.
As for “MSLKIAIVGGPTAVGKTDIMIEVCEEIGAEIISMDSRQIYRYMDIGTAKPTPEQRKRVLHHMIDIIDPDEYYNAFMYRKDSLRAMEDVLRRGKIPVYVGGTGLYADALVRGIFEGVPADENIRKELRELERREPGILRKMLEELDPEAATRIHPNDLKRTIRALEVYMKTGRRISELQKEAKGDDRFFIIVLTRERYELYERINKRVDKMIEMGLVDEVKRLLGMGYSKDLNSMKTIGYKEVIDYLEGKYDFDKMVHLIKRNTRHFARRQIIWFKRYKEAVWYNLTFEDVGEVKEKLKKLIVENFSVEGHHHHHH”, the “soluble on expression in E. coli” value is listed as “soluble”.
Regarding “MGHHHHHHSHEPRVNTSALQKIAADMSNIIENLDTRELHFEGEEVDYDVSPSDPKIQEVYIPFSAIYNTQGFKEPNIQTYLSGCPIKAQVLEVERFTSTTRVPSINLYTIELTHGEFKWQVKRKFKHFQEFHRELLKYKAFIRIPIPTRRHTFRRQN”, the “soluble on expression in E. coli” value is “not soluble”.
In the case of “MGSDKIHHHHHHMAGTCGLTLGKYAPLHKGHQLVIETALAEMDEVLVMIYECPEVTAIPLTVRANWLRKIYPQILVIEAWDGPTEVGDTSEIKKMHEDYILKQLESKKITHFYCSEFYGEHVSQALGAVNRLVDCDRKTFPISGTQVRTDTYAMREYLHPDVYRDLIANIVFLGAPSTGKTTIASQLAKEYNTVWMPEYGREYWEKNQINRRLSLLQLVEIAKGHLEREEALLLQANQYLFTDTNALTTYQFSLYYHKTVAPELVQLAHQAMSRYDLVFLCDLDIPYDDTWDRSGEANRSIFQKQIESDLIVRKIPFFRLSGDLMTRISIVKKVLYYYQKYASLGELFFNKLIL”, the “soluble on expression in E. coli” value is “not soluble”.
As for “MGSDKIHHHHHHMLNQQWLTTFIKLVELGHFTHTAEQLFMTQSGVSQQIKKLEQQAGAPLLNRIGKGFELTQAGMALLAHAQALVQQQAELLASFHQDNAYSGECKLACSGSLAMLIYPKLIDRQLQYPELKMSLEAAPNQRIIDRVLDNSIDVGIITQEFAHPELSLRLLGSQRLCLVLPNVWEGRLPRLIEYNFLTELGMIDHPDGMHYWQHFVECHFPQHLPQASKIKRLSYVNQLSQILLPVAKGLGFAVLPEFAIKQVSARDGVLEGLFRVPDASLSAHVASESLYLIQKRHRPLALRYQEIITLIKGLIS”, the “soluble on expression in E. coli” value is reported as “not soluble”.
Consider “MNEFKYNIGYALSGGFIKGFAHLGIMQALHEHGIRPEILSGVSAGALAAVFYADGKEPYHIVELFEHHSFKELTTFSINKQGLLKLDSFIDFLNSNLESKTIEELKIPTIITATDLDHGRIVSFKKGKIAERLAASCCMPILFAPIRINNTYYVDGGILMNLPVSPIRKECEKVIALNVDPLVADEYSKNVVSIALRAYHFIFQANTLPQKGIADLLIESYGLEEYSNRELERAEEIFEKGYNTATELLDRLLLENGTIWR”, for which the “soluble on expression in E. coli” value was “not soluble”.
